Test results as given in article PMC6525113.

Molecular target: Human methylmalonyl-CoA epimerase, wild-type (human) (UniProt Q96PE7)
Assay: not stated; solution data (Supplemental Fig. S2)

Human methylmalonyl-CoA epimerase, wild-type (from UniProt Q96PE7 45-176) (enzyme)
stoichiometry N: 2
